The assay addresses T1, ubiquitin (single molecule, mono-ubiquitin) (Homo sapiens (Human), UniProt P0CG47 1-76).
T1 construct: also called one ubiquitin
Nature of the assay: isothermal titration calorimetry, one OtUBD to one ubiquitin.

B1: OtUBD (ubiquitin binding domain of an effector protein of Orientia tsutsugamushi), native unmodified domain (other)
chain: VNFLSENRMITSAAAALADTLLKNNNRITEGVLVDRIFDNKILSVQEKQQLLNNLLDNHIKENKSLTKESLTRMLASTHFVQQQANVLLNEKFNK
notes: also called OtUDB
B1: binding was characterised by a dissociation constant (Kd) of 5.3 nM. That is a single-digit nanomolar value.

The Kd is the concentration at which binding is half-saturated. A lower Kd goes with tighter binding.

The values above are taken from patent US20210102950A1 (YALE UNIVERSITY, published 2021).
